Targets include Fab^S1CE1-EPR-1; Fab^S1CE3-EPR-1; Fab^S1CE4-EPR-1.
Holding throughout (test): crystal structure
The target of assay [1] is extracellular domain (ECD) of the human erythropoietin receptor (EPOR) with a C-terminal hexahistidine tag (human, UniProt P19235).

One may read the stoichiometry N as a count of units in the complex or per binding partner.

Sequence of extracellular domain (ECD) of the human erythropoietin receptor (EPOR) with a C-terminal hexahistidine tag (P19235 25-250): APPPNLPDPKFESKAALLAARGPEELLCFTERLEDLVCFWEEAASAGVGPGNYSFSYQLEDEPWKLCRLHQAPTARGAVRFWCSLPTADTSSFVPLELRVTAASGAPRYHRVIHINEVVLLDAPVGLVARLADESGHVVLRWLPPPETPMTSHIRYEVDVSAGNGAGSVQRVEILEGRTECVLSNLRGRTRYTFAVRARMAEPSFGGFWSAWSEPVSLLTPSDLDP

B1: Fab^S1CE1-EPR-1 (Fab, V domains shown)
VH: EVQLVESGGGLVQPGGSLRLSCAASGFNLRSYYMHWVRQAPGKGLEWVASISPYYSYTYYADSVKGRFTISADTSKNTAYLQMNSLRAEDTAVYYCARHGYGAMDYWGQGTLVTVFN
VL: DIQMTQSPSSLSASVGDRVTITCRASQSVSSAVAWYQQKPGKAPKLLIYSASSLYSGVPSRFSGSRSGTDFTLTISSLQPEDFATYYCQQSSYSLITFGQGTKVEIK
For the molecule B1, the stoichiometry N in the assay with Fab^S1CE1-EPR-1 was determined as 2.

B2: Fab^S1CE3-EPR-1 (Fab, V domains shown)
VH: EVQLVESGGGLVQPGGSLRLSCAASGFNLRSYYMHWVRQAPGKGLEWVASISPYYSYTYYADSVKGRFTISADTSKNTAYLQMNSLRAEDTAVYYCARHGYGAMDYWGQGTLVTVFN
VL: DIQMTQSPSSLSASVGDRVTITCRASQSVSSAVAWYQQKPGKAPKLLIYSASSLYSGVPSRFSGSRSGTDFTLTISSLQPEDFATYYCQQSSYSLITFGQGTKVEIK
For B2, in the assay with Fab^S1CE3-EPR-1, the stoichiometry N is 2.

B3: Fab^S1CE-EPR-1 (Fab, V domains shown)
VH: EVQLVESGGGLVQPGGSLRLSCAASGFNLRSYYMHWVRQAPGKGLEWVASISPYYSYTYYADSVKGRFTISADTSKNTAYLQMNSLRAEDTAVYYCARHGYGAMDYWGQGTLVTVFN
VL: DIQMTQSPSSLSASVGDRVTITCRASQSVSSAVAWYQQKPGKAPKLLIYSASSLYSGVPSRFSGSRSGTDFTLTISSLQPEDFATYYCQQSSYSLITFGQGTKVEIK
Turning to B3, the binding result in assay [1] is reported as “binds”.

B4: Fab^S1CE4-EPR-1 (Fab, V domains shown)
VH: EVQLVESGGGLVQPGGSLRLSCAASGFNLRSYYMHWVRQAPGKGLEWVASISPYYSYTYYADSVKGRFTISADTSKNTAYLQMNSLRAEDTAVYYCARHGYGAMDYWGQGTLVTVFN
VL: DIQMTQSPSSLSASVGDRVTITCRASQSVSSAVAWYQQKPGKAPKLLIYSASSLYSGVPSRFSGSRSGTDFTLTISSLQPEDFATYYCQQSSYSLITFGQGTKVEIK
Consider B4, for which the stoichiometry N with Fab^S1CE4-EPR-1 turned out to be 2.

For the origin of these results see PMC11201802 (Protein Science : A Publication of the Protein Society, 2024).
